In patent publication US20240391987A1 (ALAMAB THERAPEUTICS, published 2024):

Legend:
[1] = target: T1, Cx43 hemichannels of primary human osteocytes (human, UniProt P17302 2-382); experiment: cell ELISA on primary human osteocytes
T1 construct: whole, on cells; The assay target is the whole cell (primary human osteocytes); also called connexin 43; gap junction alpha-1 protein

[2] = target: T1, Cx43 hemichannels of primary human …; experiment: cell-based or functional assay
[3] = target: T2, Cx43 hemichannels of mouse osteocytes (MLO-Y4 cells) (mouse, UniProt P23242 2-382); experiment: cell-based or functional assay
T2 sequence (P23242 2-382): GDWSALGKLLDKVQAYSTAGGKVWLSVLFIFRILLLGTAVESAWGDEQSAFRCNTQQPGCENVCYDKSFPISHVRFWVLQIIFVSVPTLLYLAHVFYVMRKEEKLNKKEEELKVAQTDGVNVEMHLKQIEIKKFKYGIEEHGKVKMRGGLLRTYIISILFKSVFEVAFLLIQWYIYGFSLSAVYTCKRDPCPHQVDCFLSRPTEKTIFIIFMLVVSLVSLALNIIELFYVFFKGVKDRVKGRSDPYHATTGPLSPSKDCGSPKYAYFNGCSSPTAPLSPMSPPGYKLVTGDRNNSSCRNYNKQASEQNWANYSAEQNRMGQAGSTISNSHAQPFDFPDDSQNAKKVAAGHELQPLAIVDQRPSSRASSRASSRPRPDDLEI

[4] = target: T2, Cx43 hemichannels of mouse osteocytes …; experiment: cell ELISA on mouse osteocytes (MOL-Y4)

T1 sequence (P17302 2-382): as the sequence (P23242 2-382) above, with E123D, V163I, R242K, T250S, P252A, S256A, P262Q, S340N, A343S, V346L counted along it

B1: ALMB-0168 (antibody, V domains shown)
VH: EVQLVQSGAEVKKPGASVKVSCKASGYTFTSYYMYWVRQAPGQGLEWIGGINPSNAGTNFNEKFKNRATLTVDKSTSTAYMELSSLRSEDTAVYYCTREGNPYYTMNYWGQGTLVTVSS
VL: DVVMTQSPLSLPVTIGQPASISCKSSQSLLESDGKTYLNWLQQRPGQSPRRLIYLVSKLDSGVPDRFSGSGSGTDFTLKISRVEAEDVGVYYCWQGTHFPWTFGGGTKVEIKR
notes: also called anti-Cx43 antibody
EC50 [1]: 41 µg/mL
EC50 of Cx43 hemichannel opening, EB staining, human osteocytes [2]: 3.97 µg/mL
EC50 of Cx43 hemichannel opening, EB staining, MOL-Y4 cells [3]: 2.33 µg/mL
plasma ATP level in mice, luciferin/luciferase assay, against saline-treated mice [3]: > 5 fold
EC50 [4]: 37.3 µg/mL
